The values below come from US9035023B2, “Bombesin analog peptide antagonist conjugates” (Piramal Imaging, SA, priority 2008, dated 2015).

By IC50 is commonly meant the concentration needed to halve the response being measured.

Series [1] concerns the target T1, GRP receptor (Homo sapiens, UniProt P30550). Kind of series: GRP receptor binding affinity by in vitro receptor autoradiography. The arrangement: host or cells: PC3 cells. The conditions noted are these: read-out: BINDING IC50 (nM) mean ± SEM. How it is done: The GRP receptor binding affinity of the various compounds was determined by in vitro receptor autoradiography on cryostat sections of either well characterized prostate carcinomas, or on sections from HEK-GRPR or PC3 cell pellets as described previously (Markwalder et al., Can. Res., 1999; 59, 1152-1159; Reubi et al., Eur. J. Nucl. Med., 2000; 27: 273-282; Reubi et al., Clin. Cancer Res. 2002; 8 1139-1146).

Series [2] addresses T1, GRP receptor. The series is described as follows: Calcium release assay in PC3 cells (Fluo-4NW). The format is cell-based. The arrangement: host or cells: PC3 cells. On the procedure:
In brief, PC3 cells were seeded (10,000 cells per well) in 96 well plates and cultured for 2 day at 37° C. and 5% CO2 in culture medium. At the day of the experiment, the cells were washed with assay buffer (1×HBSS, 20 mM HEPES) containing 2.5 mM probenecid, and then loaded with 100 μL/well Fluo-4NW dye in assay buffer containing 2.5 mM probenecid for 30 min at 37° C. and 5% CO2 and then for further 30 min at room temperature. […] Intracellular calcium mobilization was recorded in a kinetic for 60 sec at room temperature monitoring fluorescence emission at 520 nm (with λex=485 nm) in the presence of the analogues at the concentrations indicated. […] Baseline (F-baseline) measurements were taken for dye-loaded, untreated cells. […] All experiments were repeated at least three times in triplicate.

Series [3] concerns the target T1, GRP receptor. The series is described as follows: Immunofluorescence microscopy based internalization assay with HEK-GRPR cells. In kind it is cell-based. Set-up: expressed in transfected cells; host or cells: HEK293. To be noted: for antagonism of bombesin-induced GRP receptor internalization: 10 nmol/L bombesin + 1 μmol/L analogue; for antagonism of bombesin-induced GRP receptor internalization / GRP receptor internalization, given alone: 30 min; for GRP receptor internalization, given alone: 1 μmol/L. On the procedure:
Briefly, HEK-GRPR cells were grown on poly-D-lysine (20 μg/ml) (Sigma-Aldrich, St. Louis, Mo.) coated 35 mm four-well plates (Cellstar, Greiner Bio-One GmbH, Frickenhausen, Germany). […] The cells were imaged using a Leica DM RB immunofluorescence microscope and an Olympus DP10 camera.
Following incubation with the peptides, the cells were processed for immunocytochemistry as described in above.

Series [4] addresses T1, GRP receptor. To be noted: cited from earlier work.
In series [5] the test system is PC-3 tumor. The series is described as follows: Biodistribution in PC-3 tumor bearing nude mice. How it is done:
Eleven days after inoculation the mice were injected into the tail vein with 10 pmol of radiolabeled peptides (about 0.18 MBq), diluted in NaCl (0.1% bovine serum albumin, pH 7.4, total injected volume=100 μL).

The subject of series [6] is PC-3 tumor.
[7] abbreviates: 100 μg bombesin or non-radioactive Compound 2.

T1 sequence (P30550 whole entry): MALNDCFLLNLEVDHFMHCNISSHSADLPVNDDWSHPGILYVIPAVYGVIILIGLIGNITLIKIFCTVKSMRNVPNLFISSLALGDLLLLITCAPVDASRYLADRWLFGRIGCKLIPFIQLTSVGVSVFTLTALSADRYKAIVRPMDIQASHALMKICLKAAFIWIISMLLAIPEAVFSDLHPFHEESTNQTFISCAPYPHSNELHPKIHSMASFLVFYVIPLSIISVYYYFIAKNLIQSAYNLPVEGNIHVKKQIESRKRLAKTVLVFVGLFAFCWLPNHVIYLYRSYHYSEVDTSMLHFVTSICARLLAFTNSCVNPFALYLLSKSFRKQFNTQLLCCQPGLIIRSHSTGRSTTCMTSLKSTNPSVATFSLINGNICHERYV

In the case of `CC(C)C[C@H](NC(=O)C[C@H](O)[C@H](CC(C)C)NC(=O)[C@H](Cc1c[nH]cn1)NC(=O)CNC(=O)[C@@H](NC(=O)[C@H](C)NC(=O)[C@H](Cc1c[nH]c2ccccc12)NC(=O)[C@H](CCC(N)=O)NC(=O)[C@@H](Cc1ccccc1)NC(=O)c1ccc(NC(=O)CNC(=O)CN2CCN(CC(=O)O)CCN(CC(=O)O)CCN(CC(=O)O)CC2)cc1)C(C)C)C(N)=O` [Compound 1, DOTA-Gly-aminobenzoyl-D-Phe-Gln-Trp-Ala-Val-Gly-His-Sta-Leu-NH2], at GRP receptor [1], the IC50 turned out to be 30 ± 4.5 nM. Besides, the “effect on calcium release, tested alone” value at GRP receptor [2] (1 μmol/L and 10 μmol/L) is “no effect on calcium release”. On GRP receptor [3], the “antagonism of bombesin-induced GRP receptor internalization” value is on record as “efficiently antagonized” and the “GRP receptor internalization, given alone” value was “no effect on GRP receptor internalization”.
Regarding “^177Lu-DOTA-Gly-4-aminobenzoyl-Gln-Trp-Ala-Val-Gly-His-Leu-Met-NH2 [Compound L70]”, the agonist/antagonist behaviour result in the series with GRP receptor [4] is reported as “behaved as an agonist”.
As to “^111In-DOTA-(15-amino-4,7,10,13-tetraoxapentadecanoic acid)-(4-amino-1-carboxy-methyl-piperidine)-D-Phe-Gln-Trp-Ala-Val-Gly-His-Sta-Leu-NH2 [^111In-Compound 5]”, in the series with PC-3 tumor [5] (1 h), the “biodistribution, adrenal” value was found to be 3.63 ± 0.53; the “biodistribution, blood” value is listed as 0.75 ± 0.21; the “biodistribution, bone” value is on record as 0.34 ± 0.04; the “biodistribution, heart” value came to 0.28 ± 0.06. Besides, in the series with PC-3 tumor [5] (1 h), the “biodistribution, intestine” value amounted to 2.39 ± 0.42; the “biodistribution, kidney” value stood at 5.08 ± 0.72; the “biodistribution, liver” value came to 0.40 ± 0.09; the “biodistribution, lung” value is listed as 0.62 ± 0.15. In addition, in the series on PC-3 tumor [5] (1 h), the “biodistribution, muscle” value is listed as 0.19 ± 0.07; the “biodistribution, pancreas” value is 26.83 ± 4.34; the “biodistribution, pituitary” value is recorded as 9.02 ± 0.99; the “biodistribution, spleen” value is reported as 0.80 ± 0.28. Further, in the series with PC-3 tumor [5] (1 h), the “biodistribution, stomach” value is given as 3.92 ± 1.26; the “biodistribution, tumor” value was found to be 10.27 ± 0.36; the “tumor:blood” value was found to be 13.73; the “tumor:bone” value is on record as 29.93. In addition, in the series on PC-3 tumor [5] (1 h), the “tumor:kidney” value was found to be 2.02, the “tumor:muscle” value is 53.65 and the “tumor:pancreas” value was 0.38. In the series with PC-3 tumor [5] (4 h), the “biodistribution, adrenal” value stood at 0.68 ± 0.31; the “biodistribution, blood” value is 0.03 ± 0.01; the “biodistribution, bone” value turned out to be 0.08 ± 0.02; the “biodistribution, heart” value was determined as 0.03 ± 0.01. In the series on PC-3 tumor [5] (4 h), the “biodistribution, intestine” value came out at 0.17 ± 0.10; the “biodistribution, kidney” value stood at 2.04 ± 0.15; the “biodistribution, liver” value is 0.15 ± 0.05; the “biodistribution, lung” value was determined as 0.15 ± 0.19. Further, in the series with PC-3 tumor [5] (4 h), the “biodistribution, muscle” value is listed as 0.02 ± 0.00; the “biodistribution, pancreas” value was determined as 1.36 ± 0.81; the “biodistribution, pituitary” value is 0.38 ± 0.16; the “biodistribution, spleen” value is given as 0.09 ± 0.03. Besides, in the series with PC-3 tumor [5] (4 h), the “biodistribution, stomach” value is reported as 0.87 ± 0.58; the “biodistribution, tumor” value worked out at 9.35 ± 0.73; the “tumor:blood” value turned out to be 319.66; the “tumor:bone” value came to 124.55. Moreover, in the series with PC-3 tumor [5] (4 h), the “tumor:kidney” value came out at 4.59, the “tumor:muscle” value was determined as 475.17 and the “tumor:pancreas” value is on record as 6.90. For the same compound, in the series with PC-3 tumor [5] (4 h blocking, 2000 fold), the “biodistribution, adrenal” value is 0.07 ± 0.02; the “biodistribution, blood” value is reported as 0.02 ± 0.00; the “biodistribution, bone” value was 0.03 ± 0.03; the “biodistribution, heart” value came out at 0.02 ± 0.00. In addition, in the series on PC-3 tumor [5] (4 h blocking, 2000 fold), the “biodistribution, intestine” value was 0.03 ± 0.01; the “biodistribution, kidney” value is given as 1.76 ± 0.36; the “biodistribution, liver” value was 0.14 ± 0.01; the “biodistribution, lung” value came to 0.05 ± 0.01. Further, in the series with PC-3 tumor [5] (4 h blocking, 2000 fold), the “biodistribution, muscle” value was found to be 0.01 ± 0.00; the “biodistribution, pancreas” value amounted to 0.06 ± 0.02; the “biodistribution, pituitary” value amounted to 0.23 ± 0.14; the “biodistribution, spleen” value is on record as 0.06 ± 0.01. Moreover, in the series on PC-3 tumor [5] (4 h blocking, 2000 fold), the “biodistribution, stomach” value turned out to be 0.06 ± 0.01 and the “biodistribution, tumor” value is given as 0.61 ± 0.07. Moreover, in the series on PC-3 tumor [5] (24 h), the “biodistribution, adrenal” value was found to be 0.62 ± 0.16; the “biodistribution, blood” value is listed as 0.01 ± 0.00; the “biodistribution, bone” value worked out at 0.08 ± 0.02; the “biodistribution, heart” value was determined as 0.02 ± 0.00. Also, in the series on PC-3 tumor [5] (24 h), the “biodistribution, intestine” value is listed as 0.05 ± 0.02; the “biodistribution, kidney” value was found to be 1.37 ± 0.22; the “biodistribution, liver” value stood at 0.11 ± 0.02; the “biodistribution, lung” value was 0.51 ± 0.73. Further, in the series with PC-3 tumor [5] (24 h), the “biodistribution, muscle” value came out at 0.02 ± 0.00; the “biodistribution, pancreas” value was 0.33 ± 0.05; the “biodistribution, pituitary” value came out at 0.46 ± 0.52; the “biodistribution, spleen” value was 0.07 ± 0.01. Further, in the series on PC-3 tumor [5] (24 h), the “biodistribution, stomach” value is on record as 0.05 ± 0.01; the “biodistribution, tumor” value is listed as 6.33 ± 0.76; the “tumor:blood” value turned out to be 1155.51; the “tumor:bone” value stood at 76.65. Further, in the series on PC-3 tumor [5] (24 h), the “tumor:kidney” value came out at 4.62, the “tumor:muscle” value worked out at 364.92 and the “tumor:pancreas” value was 19.16.
As for `CC(C)C[C@H](NC(=O)C[C@H](O)[C@H](CC(C)C)NC(=O)[C@H](Cc1c[nH]cn1)NC(=O)CNC(=O)[C@@H](NC(=O)[C@H](C)NC(=O)[C@H](Cc1c[nH]c2ccccc12)NC(=O)[C@H](CCC(N)=O)NC(=O)[C@@H](Cc1ccccc1)NC(=O)c1ccc(NC(=O)CNC(=O)CN2CCN(CC(=O)O)CCN(CC(=O)O)CCN(CC(=O)O)CC2)cc1)C(C)C)C(N)=O` [^115In-1], the half-inhibitory concentration (IC50) at GRP receptor [1] turned out to be 16 ± 5.3 nM. In addition, the “Signaling Ca++ mobilization” value on GRP receptor [2] is reported as “ANTAG/no agonist effect”. For the same compound, the Receptor internalization result at GRP receptor [3] (HEK-GRPR cells) is “Antag/no agonist”.
Regarding “[D-Phe^6, Leu-NHEt^13, des-Met^14]-bombesin(6-14) [GRPR-ANTAG, reference compound]”, at GRP receptor [3], the “antagonism of bombesin-induced GRP receptor internalization” value is “efficiently antagonized” and the “GRP receptor internalization, given alone” value is “no effect on GRP receptor internalization”.
Turning to “^68Ga-DOTA-4-amino-1-carboxymethyl-piperidine-D-Phe-Gln-Trp-Ala-Val-Gly-His-Sta-Leu-NH2 [^68Ga-COMPOUND 2]”, the “blocking of tumor contrast” value in the series on PC-3 tumor [6] (setting [7]) and in the series on LNCaP tumor (setting [7]) was “effectively blocked” throughout. Further, the tumor contrast entry in the series with PC-3 tumor [6] (1 h after injection of 10 MBq) and with LNCaP tumor (1 h after injection of 10 MBq) was “High tumor-contrast” each time.
